Assay: label from the status in PepcDB records
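Note: failed if final PepcDB status was selected cloned or expressed and not failed if soluble or beyond.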

Sequence	protein production
QSQGGGSVTKKRKLESSESRSSFSQHARTSGRVAVEEVDEEGKFVRLRNKSNEDQSMGNWQIRRQNGDDPLMTYRFPPKFTLKAGQVVTIWASGAGATHSPPTDLVWKAQNTWGCGSSLRTALINSTGEEVAMRKLVR	not failed
QTLLQANPDPVLVADAETGKIVEANAAATGLLGRPREEIIGAHQTDLHPSGRAEAYASLFRRSLDEDGPMRALPDGTQIEVVTDEGTTVPVEVNATTVDLPDGRVVYGVFRDVSE	failed
QTPVYLDTSKPIEERVKDALSRMTLEEKVKMTHAQSKFSSPGVPRLGIPEVWATDGPHGIRPEVLWDEWDQAGWTNDSCIAYPALTCLSATWNPEMSYLYGKSIGEEARYRKKDILLGPGVNIYRTPLNGRNFEYMGEDPYLSSMMVVPYIKGVQENGVAACVKHYALNNQEFNRHTTNVHLSDRALYEIYLPAFKAAVQEGGAWAIMGAYNLYSFSEDTDSGKLYKTQHACHNKRLLQDILRKEWGFDGVVVSDWGGVHDTFQAISNGLDMEFGSWTNGLSAGTRNAYDNYYLAHPYLKLIQDGTVGTKELDEKVSNILRLIFRTSMNPH	failed
QTQALFMNTRRAVFKERALRQALGEMFDFEWTNRALFSNSYLRSRSYYPNSEFAASGVPEGQEWLYLSPYRKQLPAQLFKQPFSLPTTEGRGIPRETLRHALGLLADAGWKLSGDRLLNKKGEPLRFEILLVNPSLERILQPYRENLASIGIDARLRTVDRAQYKQRLDQFDYDMILMTLPQTLSPGLEQWQYFHSSQVKVKGSKNYAGIANPVVDAMLNRLLGAHSRDEQVAAARALDRTLLWQYYSIPNWYLN	failed
QTVNHELQSKVSELSEANNDMKNLLNSTDIATLFLDDSLNIRRFTTRTASIIKLIASDIGRPITDIVTDLHYPALADDAQEVLRTLIFREKQVSANNDRWFSVKIMPYRTQENKIVGLVITFSDITTSKKLEA	failed
QVGIYRTRTCDGLILNANQRFADLFGFDSPQEIIGIEHTIGYWVNPSDRQQGIEVMKRDGEVRSYEAQMRKRDGTVFWGLFSSYLNAGDDYIEGVIADISDVYDELRLRKQAEVALQASEAELRSLFSAIPDPLCVVTAQ	failed
QVKRQTRRVASATYMVSLLDSQIDSPATLFIDEQALEAAKRRSYQRGVLEGSEMSRVFSWMRPNDLIWTYWINNYLLGKSPPPFDILYWNNDTTRLPAALHGDLLDFFKHNPLSHAGGLEVCGTPIDLQKVTVDSFSVAGINDHITPWDSVYRSTLLLGGDRRFVLANSGHVQSILNP	not failed
QVYKAKFGTPNRGWVIIVHGLGEHSGRYSKLVSMLVNEGYAVYTFDWPGHGKSPGKRGHTSVEEAMEIIDFIIEEINDKPFLFGHSLGGLTVIRYAETRPEKIRGVIASSPALAKSPKTPSFMVALAKILGVLLPSLTLSNGIDPNLLSRNPDAVKRYIEDPLVHDRISAKLGRSIFKNMDLAHREAHKIKVPVLLLVGTGDVITPPEGARKLYGEIKVEDKEIVEFEGAYHEIFEDPEWGEEFHKKIVEWIKKH	not failed
RDIGKESLEKAPEVELVNSAEEGNAVVLDIRSPDEEDESPLEIVGVEVKHLPFYKLATQFGDLDQSKTYLLYCSRGVMSRLQALYLQEQGFNNVKVYR	failed
RDRSTIARIQFRLPDGSSFTNQFPSDAPLEEARQFAAQTVGNTYGNFSLATMFPRREFTREDYKRRLLDLELAPSASVVLLPAGRPATSIVHSSSGDILMID	not failed
RERLLSEAKATLQNYVAIAMTAIKPLYDAAAPGDEAARANAIKLLSAVSYGKDGYLFGYDSQVVRIFRSTSPDGLGKSFVDARDANGVYINR	failed
RERLRFERDHFRILVDVTNTVISKLELDVLAAEVSKEIHRFFNIDYISLAICGTHNDKNKLNVFSTRYQSGQAVQHQQTWVDMTGTLAGQVLHSRELLLVNLADIALLAPDDKQLASMLDAGLQAVCLLPLFFGHKMLGVLKLAQCQSDIFTGSNLKLLRQIAARIAIAVDNALAYNEITRLKDS	failed
RFEGGDHDLIPNNDAQNAAVNRALNAEDFALVHGPPGTGKTYTIATLVQAFVARGDRVLVSAFTNRAVDNALDALRQQGHEDIVRVGTETGVRADMQDLRLDRSGDPGERAAALRSAPVVAATTATCGSRILRELEFDVVLVDEASQLTEPDTLAAINRGARFVLVGDHEQ	failed
RIVLRREFEGNGILDGIGKKIEEGDYDIVEYNSDKWYQIHKYYSGIDNSLKGVYINISTPPELLRGKIRYLDLEIDIAIRDSEIALLDEDELNKKSIYMPSS	failed
RNRRREEAARHYLECVLDGLTTGVVVFDEKGRLKTFNKAAEQILGMPLAPLWGSSRHGWHGVSAQQSLLAEVFAAIGAAAGTDKPVQVEYAAPDDAKILLGKATVLPEDNGNGVVMVIDDIT	failed
RNVWVVAELDEQGVSEASLQMLTPARRIADKLGESVVGVIAGPPGSSQLAVEMVERGADEVIVVEHERLSEYYPDVVGSVIVELSLKYKPSVILFAATARGREMAPYVANTLKTGITADCTDFDVDPKTRDVLLIRPPFSAIMLAYIRTPFRRPQIGTARPNVFPLPERQPGRQGRIVREEVEPPEPMARLVNRV	not failed

Sequence	protein production
RPQGLHLELETRLQKMYGIRQVIVVEATEPDDEESIKQAIGSAAAHYLETSLSAQDHIGISSWSSTIRAMVSHMHPQPGKQSAQEVVQLLGGVGNKGAFEATLLTQRLATLLNCPAFLLPSQSIEQSVESKQRIVEMEEVKEVLHRFDSITLAIVGIGELEPSQLLRNSGNYYTEDMLRVLAERGAVGDICLRYFDAQGKPVLEEDEEFVVSMGLGKLRSINRVLGLAGGVRKVQAIKGALLGGYLDVLITDVGTARGLGG	not failed
RRENHQTIQEFLERIHLQEYTSTLLLNGYETLDDLKDIKESHLIELNIADPEDRARLLSAAESLL	not failed
RSFGLIIPDLENTSYARLAKLIEQNSRKAGYQILIGCSDDDPETEKKVAEALISRRIDALFVASGMPSANEYYLKLQNSGTPVIALDRPMDDEHFCCVISEDFDAAFELTESVLSPEIKTIGLIGALQDLQVSKERELGFRSACQKDDTAMTVGYGLHFSREEGKKVLDKWVQADSLPDAIVTTSYTLLEGVLDVMLEKPELMSQVRLATFGDNRLLDFLPVKINSLPQQFELIADSAMELALNASAKRYKPGVELIPRKIVKRQ	failed
RSKTVILAKNLPAGTLAAEIQETFSRFGSLGRVLLPEGGITAIVEFLEPLEARKAFRHLAYSKFHHVPLYLEWAPIGVFGAAPQKKDSQHEQPAEKAE	not failed
SAQDEEDRVLIHFNVRDIKIGPECHDVQPPEGRSRDGLLTVNLREGGRLHLCAETKDDALAWKTALLEANSTPVRVYSPYQDYYEVVPPNAHEATYVRSYYGPPYAGPGVTHVIVREDPCYSAGAPLAMGMLAGAATGAALGSLMWSPCWF	failed
SAQSLSSEPDILFLDGWQLRYQAFAARADDPRPPVLLLGGAFQSFRSFTGEVSELLAEHPVILLDLPSQGGNLQLAAELSLEDLADLIAAFAEQLGLPPLMPIGLSYGSALAALFAARHPRRCARLLLAGITAFGRPGARLLLEEALARLDEGDQSAFAHGVLTGLINPLQLERTGVSPVFRKAMLRQLQRLTAAEIERYRQNSRRLLAFGGFERHPTCPTLVLAGEYDHFTQPWEHAVFAHACGNAEFALIHDADHLAQFERREACARLYGPFLRG	failed
SAWALKLPLADEVIESGLVQDFDASLSGIGQELGAGAYSMSDVLALPIFKQEESSLPPDNENKILPFQYVLCAATSPAVKLHDETLTYLNQGQSYEIRMLDNRKLGELPEINGKLVKSIFRVVFHDRRLQYTEHQQLEGWRWNRPGDRILDIDIPMSVGIIDPRANPTQLNTVEFLWDPAKRTSVFIQVHCISTEFTMRKHGGEKGVPFRVQIDTFKENENGEYTEHLHSASCQIKVFKPKGADRKQKTDREKMEKRTPHEKEKYQPSYETTILTECSPWPEITYVNNSPSPGFNSSHSSFSLGEGNGSPNHQPEPPPPVTDNLLPTTTPQEAQQWLHRNRFSTFTRLFTNFSGADLLKLTRDDVIQICGPADGIRLFNALKGRMVRPRLTIYVCQESLQLREQQQQQQQQQQKHEDGDSNGTFFVYHAIYLEELTAVELTEKIAQLFSISPCQISQIYKQGPTGIHVLISDEMIQNFQEEACFILDTMKAETNDSYHIILK	failed
SDIVRKTIDNDISTKWRLKTLSEKLNLSEVTIRKKLENENTNFYRILLDARMQKAARLVLDSDTHINKVSYAVGMSSVSYFIKLFSDYYGLTPKQFHLKYKHRNTGEKAAFMLYN	failed
SDMGTSALSKKPWWTLPQNFHAPMVFHMEEDQEELIFGHGDTYLRCIEVHSHTLIQLESWFTATGQTRVTVGPHRARQWLLHMFCCVGSQDSYHHARGLEMLERVRSQPLTNDDLVTSISVPPYTGDLSLAPRISGTVCLSVPQPSPYQVIGCSGFHLSSLYP	failed
SDRGQAEEAAGRQARAVSLAIADSPSVAEAIRTPDPTALLQPYAVRVMRDTDVDFVTIMNPEGIRWTHPEPTEIGHLFQGHIERAQRGQTFTETYTGTLGPSVRAVTPIVDDGRIVGLVSAGIKVEEIS	failed
SDSLETTQQDYPDCFFQHVKVNVKNPYDLTRQVCSSMDQWLTERLDSEPLSLAILVDSATSILYLSNQSNSFSLLFHYLRVMGRKLSPTLYCVCQLIHFDMGYGDELLKEAKFYDSLILQLDALPLGVPSEQDGRLSIEERDQAISTVLFKILENQIKFFTI	failed
SDWLWQTDAHGRLVHVPERFVEVAKLPPSLLIGAPLADVIGMLCPEDGRCAMGVAAKMAQREPMNDLVVHVVIGGTPRLWSLTAKPMFDAAGEFAGYRGVGRDVTERWRAEQAEAENRAKSSFLAMMSHEIRTPMNGVLGLANSLLETK	failed
SDYEKFLLFGDSITEFAFNTRPIEDGKDQYALGAALVNEYTRKMDILQRGFKGYTSRWALKILPEILKHESNIVMATIFLGANDACSAGPQSVPLPEFIDNIRQMVSLMKSYHIRPIIIGPGLVDREKWEKEKSEEIALGYFRTNENFAIYSDALAKLANEEKVPFVALNKAFQQEGGDAWQQLLTDGLHFSGKGYKIFHDELLKVIETFYPQYHPKNMQYKLKDWRDVLDDGSNIMS	not failed
SEAEGNQVYFAVYTFKARNPNELSVSANQKLKILEFKDVTGNTEWWLAEVNGKKGYVPSNYIRKTE	not failed
SEEDNRAPQLWRKTLTAPAPFADETNCQCQAPHEKLTIAQARLGTPADRPVRVYADGIFDLFHSGHARALMQAKTLFPNSYLLVGVCSDDLTHKFKGFTVMNEAERYEALRHCRYVDEVIRDAPWTLTPEFLEKHKIDFVAHDDIPYSSAGSDDVYKHIKEAGMFVPTQRTEGISTSDIITRIVRDYDVYARRNLQRGYTAKELNVSFINEKRYRFQNQVDKMKEKVKNVEERSKEFVNRVEEKSHDLIQKWEEKSREFIGNFLELFGPDGAWKQMFQERSSRMLQALSPKQSPVSSPTRSRSPSRSPSPTFSWLPLKTSPPSSPKAASASISSMSEGDEDEK	failed
SEILRKFKILGRSKSPIFAFTVTAGLALTAVTGSATAVSIFRDSPSNKIATAVEGVVRSSRAIYSITLTVADYKYTLRRLPADSDEYLQRLTEVHSRSAKRILKLCESNKGFYVKAGQFVATLKLVPKEYSLALSSLQDKAVPCNFQEIKQVLTSNLGQNLTEIYLSFDEEPIAAASIAQVHHAVLKNHQEVAVKVQYPGLKQNMMLDTMIMSFLSKSVAKIFPEYRFDWLVYEFVKSISQELDFLQEAKNSERIAKNFKHNKMITIPTVFSEFTTTQVLTMQFCKGFKVDDVESLKRTNVSPEKVAKVLVEVFAEMIFVHGFIHGDPHPGNILVSPEGQNGFSLVLLDHGNCKTLDEAFRRDFCRLWEALILLDSNKIQELGKQFGVGKYAKFFPVIFTGRTSESGLIRSITLKLGAPQRVRLLAYAKYAVYGLGYKPTSEPDFVEKSVISRSVMLMSYLRLRLILELMELFQGMKKLKHTIYGFYGQLVGGITNSVKRITCSV	failed

Source: a protein production outcome set (Wang et al. 2014)
